The assay concerns the target human CD3 (human) (UniProt P07766). Description: cell-based or functional assay.

Chain of human CD3 (human) (P07766 23-207): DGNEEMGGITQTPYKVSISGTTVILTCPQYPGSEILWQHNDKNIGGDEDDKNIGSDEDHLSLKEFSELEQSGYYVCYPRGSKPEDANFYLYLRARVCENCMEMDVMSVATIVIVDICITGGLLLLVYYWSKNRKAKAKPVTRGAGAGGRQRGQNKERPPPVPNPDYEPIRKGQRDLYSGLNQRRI

Take “Irrelevant human IgG1 (EMD Biosciences Cat. 400120) (antibody)”: the Apo-One Apoptosis Assay, 12.5 ng/ml worked out at 250; the Apo-One Apoptosis Assay, 25 ng/ml was 259; the Apo-One Apoptosis Assay, 50 ng/ml amounted to 234.

The values are drawn from patent US20090285813A1.
